Biological target: ternary troponin complex I-T-C (cTnI-cTnT-cTnC) (UniProt P19429+P45379+P63316)
Assay: SPR imaging
Conditions: L-DNA (all L-2'-deoxyribose); SPRi: PBS (10 mM phosphate, 137 mM NaCl, 2.7 mM KCl, pH 7.4), 25 C; filter binding: PBS, RT, 1 h; AlphaLisa: selection buffer (PBS, 1 mg/mL BSA, 0.01 ug/mL …)

Sequence	Kd
CAGTGAGTGATGGTGAGGGCTTAGTTCGCCGCTCATGCCGAATCTCCTGTATAAATACCCACACTGTCCATACACG [A6 spiegelmer]	0.54 nM
CAGTGAGTGATGGTGAGGGTGAATCGGTGTCGACTATTAAATTAAGTTGTGGTTGTTCCCACACTGTCCATACACG [C6 spiegelmer]	0.305 nM
